The test addresses fluorescein-labelled zinc finger region of GATA2 (GATA2-Zf), residues 291-412 (UniProt P23769). Put plainly: fluorescence polarisation; fluorescence anisotropy; 10nM fluorescein-labeled GATA2-Zf titrated with unlabeled, unliganded TR DBD-LBD or TR DBD, 1nM to 10.000nM; 10°C, 50mM NaCl, 20mM Hepes pH8.0, 3mM dithiothreitol, 5% glycerol. On the technique in general: In fluorescence polarisation assays a small probe gives low polarisation when free and higher when bound to something large.

In general, Kd refers to a measure of binding affinity in units of concentration. Read a low Kd as a tighter complex.

Sequence of fluorescein-labelled zinc finger region of GATA2 (GATA2-Zf), residues 291-412 (P23769 291-412): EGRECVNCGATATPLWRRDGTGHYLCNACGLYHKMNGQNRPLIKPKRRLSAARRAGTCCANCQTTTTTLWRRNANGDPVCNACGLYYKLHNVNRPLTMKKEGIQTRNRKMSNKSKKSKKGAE

With “human TRβ1ΔAB/EF (TR DBD), thyroid hormone receptor β1 residues 102-198, poly-histidine construct (from UniProt P10828-1 102-198) (domain or fragment)”, the Kd amounted to 1930 nM.

Values taken from paper PMC2935386.
